Values quoted from earlier work, collected in article PMC5855594, “Poly-N-Acetyllactosamine Neo-Glycoproteins as Nanomolar Ligands of Human Galectin-3: Binding Kinetics and Modeling” (International Journal of Molecular Sciences, 2018).

Assays:
[1] = biological target: BSA neo-glycoprotein 12 (Bos taurus) (UniProt P02769); test: ELISA
[2] = biological target: BSA neo-glycoprotein 15 (Bos taurus) (UniProt P02769); test: ELISA
[3] = biological target: BSA neo-glycoprotein 11 (Bos taurus) (UniProt P02769); test: ELISA
[4] = biological target: BSA neo-glycoprotein 13 (Bos taurus) (UniProt P02769); test: ELISA
[5] = biological target: BSA neo-glycoprotein 14 (Bos taurus) (UniProt P02769); test: ELISA
[6] = biological target: BSA neo-glycoprotein 16 (Bos taurus); test: ELISA
[7] = biological target: Asialofetuin (Bos taurus) (UniProt P12763); test: ITC
[8] = biological target: BSA neo-glycoprotein 15 (Bos taurus) (UniProt P02769); test: competitive ELISA
[9] = biological target: BSA neo-glycoprotein 13 (Bos taurus) (UniProt P02769); test: competitive ELISA
[10] = biological target: BSA neo-glycoprotein 14 (Bos taurus) (UniProt P02769); test: competitive ELISA
[11] = biological target: BSA neo-glycoprotein 16 (Bos taurus); test: competitive ELISA

Galectin-3, sequence (P17931 2-250): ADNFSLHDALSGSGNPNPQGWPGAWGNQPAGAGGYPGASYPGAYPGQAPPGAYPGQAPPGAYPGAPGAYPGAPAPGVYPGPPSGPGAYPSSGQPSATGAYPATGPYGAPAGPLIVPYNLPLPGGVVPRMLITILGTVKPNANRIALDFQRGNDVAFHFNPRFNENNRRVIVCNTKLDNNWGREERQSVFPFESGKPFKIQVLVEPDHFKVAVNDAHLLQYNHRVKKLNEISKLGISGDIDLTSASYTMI
BSA neo-glycoprotein 13 (Bos taurus), sequence (P02769 25-607): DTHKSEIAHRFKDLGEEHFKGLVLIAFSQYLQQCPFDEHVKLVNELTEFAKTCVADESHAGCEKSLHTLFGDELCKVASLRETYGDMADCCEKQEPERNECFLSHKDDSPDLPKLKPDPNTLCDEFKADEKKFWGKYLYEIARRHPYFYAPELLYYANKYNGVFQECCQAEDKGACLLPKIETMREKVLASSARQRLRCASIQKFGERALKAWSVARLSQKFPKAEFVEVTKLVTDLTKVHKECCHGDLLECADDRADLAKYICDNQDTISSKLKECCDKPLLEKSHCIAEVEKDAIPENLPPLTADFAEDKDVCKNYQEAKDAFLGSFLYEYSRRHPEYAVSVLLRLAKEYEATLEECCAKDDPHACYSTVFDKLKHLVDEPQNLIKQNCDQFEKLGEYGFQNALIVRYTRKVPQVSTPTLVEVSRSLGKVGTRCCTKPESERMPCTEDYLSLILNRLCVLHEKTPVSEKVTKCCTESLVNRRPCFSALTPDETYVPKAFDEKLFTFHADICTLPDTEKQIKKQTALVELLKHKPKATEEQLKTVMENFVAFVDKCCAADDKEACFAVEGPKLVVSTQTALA
BSA neo-glycoprotein 16 (Bos taurus), sequence (P02769 25-607): as above
BSA neo-glycoprotein 15 (Bos taurus), sequence (P02769 25-607): as above
BSA neo-glycoprotein 14 (Bos taurus), sequence (P02769 25-607): as above
Asialofetuin (Bos taurus), sequence (P12763 19-359): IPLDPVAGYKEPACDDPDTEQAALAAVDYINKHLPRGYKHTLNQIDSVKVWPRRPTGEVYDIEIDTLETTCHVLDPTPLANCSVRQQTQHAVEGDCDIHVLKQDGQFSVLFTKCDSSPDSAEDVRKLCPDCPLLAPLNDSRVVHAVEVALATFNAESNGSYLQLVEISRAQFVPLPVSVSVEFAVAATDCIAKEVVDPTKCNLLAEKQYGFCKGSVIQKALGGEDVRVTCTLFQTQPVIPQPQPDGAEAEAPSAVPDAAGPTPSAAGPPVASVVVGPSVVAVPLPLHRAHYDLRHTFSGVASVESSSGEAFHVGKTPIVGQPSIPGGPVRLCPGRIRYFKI
BSA neo-glycoprotein 11 (Bos taurus), sequence (P02769 25-607): as the sequence (P02769 25-607) above
BSA neo-glycoprotein 12 (Bos taurus), sequence (P02769 25-607): as above

In the case of Galectin-3 (from UniProt P17931), the Kd [1] is given as 0.3 µM, the Kd [2] is given as 0.7 µM and the Kd [3] is given as 0.03 µM. For the same substance, the Kd [4] was 0.076 µM, the Kd [5] was 0.35 µM and the Kd [6] was 0.29 µM. For the same substance, the Kd [7] was 0.00714 µM, the IC50 [8] was 0.212 µM and the IC50 [9] was 0.037 µM. For the same substance, the IC50 [10] was 0.076 µM and the IC50 [11] was 0.065 µM.
